Measured values reported in patent publication US20220265842A1, “ANTI-CD40 ANTIBODY DRUG CONJUGATES” (priority 2017, published 2022).

How the values were obtained:
[1] = molecular target: human CD40 on LPS-stimulated human monocyte-derived dendritic cells (human, UniProt P25942 21-277); assay: cell-based or functional assay
[2] = molecular target: human CD40 Transcript 1 (Myc-DDK-tagged) on HEK293 GRE reporter cells (human, UniProt P25942 21-277); assay: cell-based or functional assay
Sequence of human CD40 Transcript 1 (Myc-DDK-tagged) on HEK293 GRE reporter cells (P25942 21-277): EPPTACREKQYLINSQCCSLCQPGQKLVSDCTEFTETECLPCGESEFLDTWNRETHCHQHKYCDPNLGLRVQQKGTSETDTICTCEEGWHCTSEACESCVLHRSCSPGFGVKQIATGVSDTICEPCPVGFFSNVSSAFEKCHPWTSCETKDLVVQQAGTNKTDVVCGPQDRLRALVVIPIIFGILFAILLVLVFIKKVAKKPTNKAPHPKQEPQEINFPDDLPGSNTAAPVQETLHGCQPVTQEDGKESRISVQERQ

Sequence of human CD40 on LPS-stimulated human monocyte-derived dendritic cells (P25942 21-277 limits assumed): as the sequence (P25942 21-277) above

Binder | IL-6 release IC50 [1] | Max Inhibition (%) [1] | hCD40 GRE (% max) [2] | hCD40 GRE EC50 [2]
Example 12-hydrolyzed (human), n=4 (antibody, human IgG1, kappa, L234A L235A, V domains shown, glucocorticoid drug-linker of Precursor Example 12 (maleimide, thiosuccinimide ring hydrolyzed) on cysteine thiols of reduced disulfides; n=4 per antibody; positions not given) VH: EVQLVESGGGLVKPGGSLRLSCAASGFTFSDYGMNWVRQAPGKGLEWIAYISSGRGNIYYADTVKGRFTISRDNAKNSLYLQMNSLRAEDTAVYYCARSWGYFDVWGQGTTVTVSS VL: DIVMTQSPDSLAVSLGERATINCKSSQSLLNRGNQKNYLTWFQQKPGQPPKLLIYWASTRESGVPDRFSGSGSGTDFTLTISSLQAEDVAVYYCQNDYTYPLTFGQGTKLEIKR | 0.04 µg/mL | 99.5% | 163% | 0.19 µg/mL
Example 4-conjugated (human), n=4 (antibody, human IgG1, kappa, L234A L235A, DAR 4, V domains shown, glucocorticoid drug-linker of Precursor Example 4 (bromoacetamide) on cysteine thiols of reduced interchain disulfides; n=4 per antibody; positions not given) VH: EVQLVESGGGLVKPGGSLRLSCAASGFTFSDYGMNWVRQAPGKGLEWIAYISSGRGNIYYADTVKGRFTISRDNAKNSLYLQMNSLRAEDTAVYYCARSWGYFDVWGQGTTVTVSS VL: DIVMTQSPDSLAVSLGERATINCKSSQSLLNRGNQKNYLTWFQQKPGQPPKLLIYWASTRESGVPDRFSGSGSGTDFTLTISSLQAEDVAVYYCQNDYTYPLTFGQGTKLEIKR |  |  | 88% | 6.57 µg/mL
Example 28-conjugated (human), n=4 (antibody, human IgG1, kappa, L234A L235A, DAR 4, V domains shown, glucocorticoid drug-linker of Precursor Example 28 (bromoacetamide) on cysteine thiols of reduced interchain disulfides; n=4 per antibody; positions not given) VH: EVQLVESGGGLVKPGGSLRLSCAASGFTFSDYGMNWVRQAPGKGLEWIAYISSGRGNIYYADTVKGRFTISRDNAKNSLYLQMNSLRAEDTAVYYCARSWGYFDVWGQGTTVTVSS VL: DIVMTQSPDSLAVSLGERATINCKSSQSLLNRGNQKNYLTWFQQKPGQPPKLLIYWASTRESGVPDRFSGSGSGTDFTLTISSLQAEDVAVYYCQNDYTYPLTFGQGTKLEIKR | 0.05 µg/mL | 87.6% | 77% | 0.53 µg/mL
Human anti-CD40 antibody Ab102 (antibody, human IgG1, kappa, L234A L235A, V domains shown) VH: EVQLVESGGGLVKPGGSLRLSCAASGFTFSDYGMNWVRQAPGKGLEWIAYISSGRGNIYYADTVKGRFTISRDNAKNSLYLQMNSLRAEDTAVYYCARSWGYFDVWGQGTTVTVSS VL: DIVMTQSPDSLAVSLGERATINCKSSQSLLNRGNQKNYLTWFQQKPGQPPKLLIYWASTRESGVPDRFSGSGSGTDFTLTISSLQAEDVAVYYCQNDYTYPLTFGQGTKLEIKR | 0.18 µg/mL | 44.5% |  | 
Example 28-conjugated (human), n=2 (antibody, human IgG1, kappa, L234A L235A, DAR 2, V domains shown, glucocorticoid drug-linker of Precursor Example 28 (bromoacetamide) on cysteine thiols of reduced interchain disulfides; n=2 per antibody; positions not given) VH: EVQLVESGGGLVKPGGSLRLSCAASGFTFSDYGMNWVRQAPGKGLEWIAYISSGRGNIYYADTVKGRFTISRDNAKNSLYLQMNSLRAEDTAVYYCARSWGYFDVWGQGTTVTVSS VL: DIVMTQSPDSLAVSLGERATINCKSSQSLLNRGNQKNYLTWFQQKPGQPPKLLIYWASTRESGVPDRFSGSGSGTDFTLTISSLQAEDVAVYYCQNDYTYPLTFGQGTKLEIKR | 0.03 µg/mL | 81.8% | 90% | 16.5 µg/mL
Example 13-hydrolyzed (human), n=4 (antibody, human IgG1, kappa, L234A L235A, V domains shown, glucocorticoid drug-linker of Precursor Example 13 (maleimide, thiosuccinimide ring hydrolyzed) on cysteine thiols of reduced disulfides; n=4 per antibody; positions not given) VH: EVQLVESGGGLVKPGGSLRLSCAASGFTFSDYGMNWVRQAPGKGLEWIAYISSGRGNIYYADTVKGRFTISRDNAKNSLYLQMNSLRAEDTAVYYCARSWGYFDVWGQGTTVTVSS VL: DIVMTQSPDSLAVSLGERATINCKSSQSLLNRGNQKNYLTWFQQKPGQPPKLLIYWASTRESGVPDRFSGSGSGTDFTLTISSLQAEDVAVYYCQNDYTYPLTFGQGTKLEIKR | 0.14 µg/mL | 83.3% | 67% | 0.29 µg/mL
